From publication PMC8523820 come the findings set out here.

Test [1] addresses mouse ASIC1a channel (mouse (endogenous in C57BL/6 striatal neurons)) (UniProt Q6NXK8).
The target of test [2] is human ASIC1a channel (human (endogenous in HEK293)) (UniProt P78348).
For test [3], the target named is eGFP-ASIC1a (rat ASIC1a subunit fused to eGFP) (rat) (UniProt P55926).
Test [4] addresses mouse ASIC1a channel (mouse (endogenous in C57BL/6 striatal neurons)) (UniProt Q6NXK8). This is another data set of the same source.
Test [5] addresses human ASIC1a channel (human (endogenous in HEK293)) (UniProt P78348). The source holds these as a separate data set.
Test [6] addresses eGFP-ASIC1a (rat ASIC1a subunit fused to eGFP) (rat) (UniProt P55926). This is another data set of the same source.

Chain of UniProt P55926 (P55926 whole entry, the tested form may be a part): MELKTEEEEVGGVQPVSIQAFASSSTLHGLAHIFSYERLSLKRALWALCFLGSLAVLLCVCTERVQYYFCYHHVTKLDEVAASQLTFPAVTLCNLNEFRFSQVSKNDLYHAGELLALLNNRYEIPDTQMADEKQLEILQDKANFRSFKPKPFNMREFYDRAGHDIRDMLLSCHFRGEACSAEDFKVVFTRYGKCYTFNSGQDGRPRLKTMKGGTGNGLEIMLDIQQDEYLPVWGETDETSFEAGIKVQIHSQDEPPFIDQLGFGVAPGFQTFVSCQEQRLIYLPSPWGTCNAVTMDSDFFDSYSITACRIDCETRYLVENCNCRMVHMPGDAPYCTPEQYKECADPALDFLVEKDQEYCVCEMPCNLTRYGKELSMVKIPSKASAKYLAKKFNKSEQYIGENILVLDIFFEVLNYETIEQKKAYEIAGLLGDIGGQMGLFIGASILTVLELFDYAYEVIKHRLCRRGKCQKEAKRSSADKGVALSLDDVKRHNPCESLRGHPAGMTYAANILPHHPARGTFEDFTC
Chain of UniProt P78348 (P78348 whole entry, the tested form may be a part): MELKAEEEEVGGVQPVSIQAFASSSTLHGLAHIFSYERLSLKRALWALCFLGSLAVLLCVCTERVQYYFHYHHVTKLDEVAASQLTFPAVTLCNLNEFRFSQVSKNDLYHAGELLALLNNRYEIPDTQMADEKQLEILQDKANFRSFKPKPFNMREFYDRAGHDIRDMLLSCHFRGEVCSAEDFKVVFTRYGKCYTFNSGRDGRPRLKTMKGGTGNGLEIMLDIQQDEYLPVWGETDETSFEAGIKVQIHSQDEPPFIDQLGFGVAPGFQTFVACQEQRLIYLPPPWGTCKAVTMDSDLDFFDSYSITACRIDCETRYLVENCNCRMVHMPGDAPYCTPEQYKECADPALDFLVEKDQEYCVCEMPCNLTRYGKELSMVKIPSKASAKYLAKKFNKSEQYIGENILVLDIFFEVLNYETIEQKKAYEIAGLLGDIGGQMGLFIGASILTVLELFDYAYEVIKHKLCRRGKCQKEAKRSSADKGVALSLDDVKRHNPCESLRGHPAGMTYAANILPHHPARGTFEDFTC
Chain of UniProt Q6NXK8 (Q6NXK8 whole entry): as the sequence (P55926 whole entry, the tested form may be a part) above, with S476N counted along it

On to MitTx (complex), for which the pERK/tERK relative to control, Western blot of lysates of mouse striatal neurons treated with 20 nM MitTx for 2 min (fold of control) in test [1] stood at 5.39. Further, in test [2], the pERK/tERK relative to control, Western blot of lysates of HEK cells treated with 20 nM MitTx for 2 to 10 min (7.98 at 2 min, 10.90 at 10 min) (fold of control) was 10.9. In test [3], this substance came in with a pERK/tERK relative to untreated eASICx1 cells, Western blot of HEK cells transfected with eGFP-ASIC1a (x1) and treated with MitTx (fold of eASICx1 levels) of 3.42; a pERK/tERK relative to untreated eASICx1 cells, Western blot of HEK cells transfected with eGFP-ASIC1a (x3) and treated with MitTx (fold of eASICx1 levels) of 9.96. In test [4], this substance had a pCaMKII/Tub relative to control, Western blot of lysates of mouse striatal neurons treated with 20 nM MitTx for 2 min (fold of control) of 6.37. In test [5], this substance gave a pCaMKII/Tub relative to control, HEK cells pre-incubated with 20 nM Pctx-1 for 30 min, then MitTx for 2 min (fold of control) of 1.17; a pCaMKII/Tub relative to control, Western blot of lysates of HEK cells treated with 20 nM MitTx for 2 to 10 min (8.88 at 2 min, 10.76 at 10 min) (fold of control) of 10.8; a pERK/tERK relative to control, HEK cells pre-incubated with 20 nM Pctx-1 for 30 min, then MitTx for 2 to 10 min (1.18 at 2 min, 1.42 at 10 min) (fold of control) of 1.42. This substance also returned a pERK/tERK relative to untreated eASICx1 cells, HEK cells transfected with eGFP-ASIC1a (x1), pre-incubated with Pctx-1, then MitTx (fold of eASICx1 levels) in test [6] of 1.1.
